Source: patent US20260042854A1 (SCIWIND BIOSCIENCES USA, published 2026)

T1: mouse GLP-1R (NM_021332.2) on HEK293 cells (mouse, UniProt O35659 22-463)
T1 sequence (looked up): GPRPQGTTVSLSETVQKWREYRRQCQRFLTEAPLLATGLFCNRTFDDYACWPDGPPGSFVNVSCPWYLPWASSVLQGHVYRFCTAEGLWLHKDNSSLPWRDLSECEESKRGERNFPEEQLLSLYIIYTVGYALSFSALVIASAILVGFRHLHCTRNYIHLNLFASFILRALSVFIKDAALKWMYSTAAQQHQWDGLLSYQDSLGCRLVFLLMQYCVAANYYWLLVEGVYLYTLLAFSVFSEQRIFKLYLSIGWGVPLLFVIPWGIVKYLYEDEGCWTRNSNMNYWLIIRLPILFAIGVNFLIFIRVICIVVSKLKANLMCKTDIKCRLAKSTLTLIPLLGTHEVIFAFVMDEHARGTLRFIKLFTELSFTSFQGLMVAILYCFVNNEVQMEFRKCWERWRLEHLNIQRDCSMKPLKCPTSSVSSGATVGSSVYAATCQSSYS


How the values were obtained:
[1] = target: T2, extracellular domain of hGLP-1R (NP_002053.3, aa 24-145), recombinant protein (human, UniProt P43220 24-145); assay: ELISA, plate coated with hGLP-1R extracellular domain, anti-human Fc-HRP detection
T2 construct: range 24-145; Expressed as a recombinant protein; also called hGLP-1R recombinant protein

[2] = target: monkey GLP-1R (JN033215.1) on HEK293 cells (monkey); assay: cell-based or functional assay
[3] = target: T3, hGLP-1R on the cell membrane (HEK293 cells overexpressing hGLP-1R) (human, UniProt P43220 24-463); assay: cell-based or functional assay
[4] = target: T3, hGLP-1R on the cell membrane (HEK293 …); assay: flow cytometry on HEK293 cells overexpressing hGLP-1R, PE anti-human IgG Fc
[5] = target: T3, hGLP-1R on the cell membrane (HEK293 …); assay: cell-based or functional assay; remark: listed apart in the source
[6] = target: T1, mouse GLP-1R (NM_021332.2) on HEK293 …; assay: cell-based or functional assay

| Binder | EC50 [1] [nM] | IC50 (nM), inhibition of GLP-1 (1 ng/ml) induced cAMP (HTRF) in HEK293 cells transfected with monkey GLP-1R [2] [nM] | IC50 (nM), inhibition of GLP-1 (1 ng/ml) induced cAMP (HTRF) in HEK293 cells transfected with human GLP-1R [3] [nM] | EC50 [4] [nM] | IC50, inhibition of GLP-1 (2.5 ng/mL) activity in hGLP-1R-CRE-Luciferase-HEK293 reporter gene assay [5] [nM] | IC50 (nM), inhibition of GLP-1 (6 ng/ml) induced cAMP (HTRF) in HEK293 cells transfected with mouse GLP-1R [6] [nM] |
| --- | --- | --- | --- | --- | --- | --- |
| P16288 (antibody, human IgG4 S228P, kappa, V domains shown, Fully human Fab from a phage library, linked to IgG4 (S228P) constant regions; also called anti-GLP-1R antibody P16288) VH: QVQLVQSGAEMKKPGASVKVSCKTSGYRFSTYVISWVRQTPGQGLEWMGWISPYTGDIDYAQKFQGRVTITADESTSTAYMELSRLRSDDTAVYYCARERDGYNFPGMDVWGQGTTVTVSS VL: DIQLTQSPSFLSASVGDRVTITCRASQGISSYLAWYQQKPGRAPKLLIYSASTLQRGVPSRFSGSGSGTDFTLTISSLQPEDYATYYCQQADSFPPSFGPGTKVDIKR | 0.013 | 162 | 211 | 9.9 | 13.4 |  |
| P16289 (antibody, human IgG4 S228P, kappa, V domains shown, Fully human Fab from a phage library, linked to IgG4 (S228P) constant regions; also called anti-GLP-1R antibody P16289) VH: EVQLVETGGGVVQPGRSLRLSCAASGFTFSSYAMHWVRQAPGKGLEWVAVISYDGSNKYYADSVKGRFTISRDNSKNTLYLQMNSLRAEDTAVYYCAREGYSSSWTYYYYYYMDVWGKGTMVTVSS VL: DIQLTQSPSSLSASVGDRVTITCRASQGVSRALAWYQQKPGKAPKLLIYDASYLEDGVPSRFSGSGSGTDFTLTISSLQPEDFATYYCQQSYSTPYTFGQGTKLEIKR | 0.0048 | > 5500 | > 5500 | > 137 | > 2820 | > 5500 |
